In patent US20260217821A1 (SPH BIOTHERAPEUTICS SHANGHAI, published 2026):

B1: 5-26 (VHH)
VHH: QVQLQESGGGLVQPGGSLRLSCAASGFTLDLYAIGWFRQAPGKERERVSCISSGGSTNYAESVKGRFTISRDNGKNTVYLQMNSLKPEDTAVYYCVRSVPSCGSYYFPPRNMNYWGKGTQVTVSS
notes: Alpaca VHH from the phage library; not shown: one his tag and one HA tag at the C-terminus
B2: 5-09 (VHH)
VHH: QVQLQESGGGLVQPGGSLRLSCAASGFTLDDYAIGWFRQAPGKERERISCISSGGNTNYADSVKGRFTLSRDNAKNTVYLQMYSLKPEDTAVYYCTASIPSCASYYFPPRNMDYWGKGTQVTVSS
notes: also called 5-9; not shown: one his tag and one HA tag at the C-terminus
B3: 5-95 (VHH)
VHH: QVQLQESGGGLVQPGGSLRLSCAASGFTFSTYSMTWVRQAPGKGLEWVSDINSGGSVAYYTDSVKGRFTASRDNAKNTLYLQMNSLKPEDTAVYYCYEGGYHGGSPRGHGTQVTVSS
notes: not shown: one his tag and one HA tag at the C-terminus
B4: VHH2 (VHH)
VHH: QVQLVESGGGLVQAGGSLRLSCAASGSIFSINAMAWYRHRPGMQRERVAAISSGGTTSYADSVKGRFTISRDNARDTLYLQMNSLKPEDTAMYYCAACPGDYTSTICNSDGMDYWGKGTLVTVSS
notes: Non-specific control VHH; also called non-specific VHH; negative control VHH2
B5: 4-92 (VHH)
VHH: QVQLQESGGGLVQPGGSLRLSCAASGFAFSSRAMSWVRQAPGKGLEWVSDINYDGAWTYYADSVKGRFTISRDNAKNTLYLQMNSLKPEDTAVYFCTDPWSIDGWGQGTQVTVSS
notes: as for B1
B6: hu5-26 ROR1 VHH CAR (other)
chain: QVQLVESGGGLVQPGGSLRLSCAASGFTLDLYAIGWFRQAPGKERGLVSCISSGGSTNYAESVKGRFTISRDNSKNTVYLQMNSLRSEDTAVYYCVRSVPSCGSYYFPPRNMNYWGQGTLVTVSSIEVMYPPPYLDNEKSNGTIIHVKGKHLCPSPLFPGPSKPFWVLVVVGGVLACYSLLVTVAFIIFWVKRGRKKLLYIFKQPFMRPVQTTQEEDGCSCRFPEEEEGGCELRVKFSRSADAPAYKQGQNQLYNELNLGRREEYDVLDKRRGRDPEMGGKPRRKNPQEGLYNELQKDKMAEAYSEIGMKGERRRGKGHDGLYQGLSTATKDTYDALHMQALPPR
B7: VHH1 (VHH)
VHH: QVQLVESGGGLVQPGGSLRLSCAASGFTFSDTWMNWVRQAPGKGLYWISAINPDGGNTAYADSVKGRFTISRDNAKNMVYLQMDNLRPEDTAMYYCAKGWVRLPDPDLVRGQGTQVTVSS
notes: Non-specific control VHH; also called non-specific VHH; negative control VHH1

Experiments:
[1] = target: T1, ROR1 expressed on cells (A549, MB231, JeKo-1, MEC-ROR1) (UniProt Q01973 30-937); assay: flow cytometry on A549 cells, 1 µg/ml, anti-HA APC
T1 construct: whole, on cells; also called ROR1-expressing cell lines; ROR1-positive cells

[2] = target: T1, ROR1 expressed on cells (A549, MB231, …); assay: flow cytometry on MB231 cells, 1 µg/ml, anti-HA APC
[3] = target: T1, ROR1 expressed on cells (A549, MB231, …); assay: flow cytometry on JeKo-1 cells, 1 µg/ml, anti-HA APC
recombinant ROR1 protein = target: T2, recombinant ROR1 protein (UniProt Q01973 30-403, limits assumed); assay: ELISA, OD450 (FIG. 6C)
T2 construct: also called his-tagged ROR1; not shown: his tag

[4] = target: T1, ROR1 expressed on cells (A549, MB231, …); assay: cell-based or functional assay

T1 sequence (Q01973 30-937): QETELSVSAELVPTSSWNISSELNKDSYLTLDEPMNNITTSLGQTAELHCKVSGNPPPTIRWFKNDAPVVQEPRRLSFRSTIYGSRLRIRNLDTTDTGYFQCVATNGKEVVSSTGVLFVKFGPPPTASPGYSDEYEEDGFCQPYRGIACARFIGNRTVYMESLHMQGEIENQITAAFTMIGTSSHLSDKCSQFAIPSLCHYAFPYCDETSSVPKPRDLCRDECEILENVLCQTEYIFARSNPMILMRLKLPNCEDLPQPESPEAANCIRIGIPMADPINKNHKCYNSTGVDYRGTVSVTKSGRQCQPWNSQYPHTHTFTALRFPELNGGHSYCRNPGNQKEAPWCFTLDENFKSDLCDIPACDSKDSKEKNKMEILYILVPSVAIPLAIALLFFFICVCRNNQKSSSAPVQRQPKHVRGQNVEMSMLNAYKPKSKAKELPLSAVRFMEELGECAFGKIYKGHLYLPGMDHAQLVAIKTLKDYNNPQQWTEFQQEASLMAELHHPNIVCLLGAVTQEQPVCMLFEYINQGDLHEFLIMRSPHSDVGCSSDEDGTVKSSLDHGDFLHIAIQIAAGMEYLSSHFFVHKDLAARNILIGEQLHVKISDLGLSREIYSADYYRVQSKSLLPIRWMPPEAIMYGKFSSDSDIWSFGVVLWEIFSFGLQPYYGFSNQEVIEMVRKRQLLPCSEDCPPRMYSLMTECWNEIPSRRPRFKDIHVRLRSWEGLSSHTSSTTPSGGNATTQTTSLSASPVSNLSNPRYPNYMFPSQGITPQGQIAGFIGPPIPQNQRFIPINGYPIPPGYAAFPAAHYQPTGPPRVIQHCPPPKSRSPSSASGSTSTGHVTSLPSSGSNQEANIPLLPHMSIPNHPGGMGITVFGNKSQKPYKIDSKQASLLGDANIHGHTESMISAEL
T2 sequence (Q01973 30-403 limits assumed): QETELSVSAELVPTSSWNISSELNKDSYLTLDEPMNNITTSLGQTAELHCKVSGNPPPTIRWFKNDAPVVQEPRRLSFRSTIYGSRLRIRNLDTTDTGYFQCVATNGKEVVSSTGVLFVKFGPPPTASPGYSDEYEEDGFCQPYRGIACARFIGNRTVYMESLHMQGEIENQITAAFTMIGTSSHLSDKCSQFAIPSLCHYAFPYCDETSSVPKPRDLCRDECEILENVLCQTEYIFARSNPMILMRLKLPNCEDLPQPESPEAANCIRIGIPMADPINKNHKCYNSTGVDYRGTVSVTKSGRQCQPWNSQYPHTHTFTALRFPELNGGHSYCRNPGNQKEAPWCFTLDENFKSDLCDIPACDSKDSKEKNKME

Row | Binder | proportion of binding cells [1] [%] | proportion of binding cells [2] [%] | proportion of binding cells [3] [%] | binding result (recombinant ROR1 protein) | proportion of target cells (surviving, GFP-labeled) after 24 hours, effector-to-target ratio 1:1, MB231 [4] [%] | proportion of target cells (surviving, GFP-labeled) after 24 hours, effector-to-target ratio 1:1, MEC-ROR1 [4] [%]
1 | B1 | 97 | 96.8 | 99.7 | – | – | –
2 | B2 | 18.5 | 61.7 | 1.9 | – | – | –
3 | B3 | 11.8 | 53.3 | 1.18 | – | – | –
4 | B4 | – | – | – | no binding | – | –
5 | B5 | 34.6 | 74.3 | 2.96 | – | – | –
6 | B6 | – | – | – | – | 2.96 | 1.93
7 | B7 | – | – | – | no binding | – | –
